Reference: the supplement of paper PMC9170038

Tested on: MS2 coat protein
Assay: apparent KD of MS2 coat protein; designed switch direction (-1 OFF switch, 1 ON switch): -1; higher = weaker reporter binding
Procedure, shortened: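 The reported apparent KD is a per-design median over clusters, from curve fits of normalised cluster fluorescence. Protein titrations used SNAP-549-labelled MS2 coat protein, doubled from 0.7 or 1.5 nM to 3 µM, in Tris-HCl pH 7.5 buffer with KCl, MgCl2, BSA, DTT, tRNA and Tween-20, with no input, 200 uM small-molecule ligand, or an oligonucleotide input. The RNA switches were transcribed on Illumina chips by stalled E. coli RNA polymerase.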

[1] = Eterna round: R95, input ligand: FMN 200 uM
[2] = Eterna round: R95, input ligand: microRNA oligo, concentration not stated
[3] = Eterna round: R95, input ligand: none
[4] = input ligand: microRNA oligo, concentration not stated

Row | Sequence | apparent KD of MS2 coat protein [1] [nM] | apparent KD of MS2 coat protein [2] [nM] | apparent KD of MS2 coat protein [3] [nM] | apparent KD of MS2 coat protein (input ligand: FMN 200 uM) [nM] | apparent KD of MS2 coat protein (input ligand: none) [nM] | apparent KD of MS2 coat protein [4] [nM]
1 | UAAAAUAGUGUGAGGAUAUGCUGGUCCUUGGAUCAGCAGAAGGCACAUGAGGAUCACCCAUGUAGUUAAUAAUA [Mat - Exclusion 4 - JL Mod - D25] (puzzle: Brourd's mod of Exclusion 4) | 196 | 36.8 | 34.4 |  |  | 
2 | UAAUAGCAAGCAAGAUCCCACAUGAGGAUCACCCAUGUGCUCGUCUUAUAAGGUACUGUGACGAAAGUCACGGUACC [Sensor 3, v1 - 98] (puzzle: Sensor v3, turn-off variant 1) | 45.5 | 535 | 47.5 |  |  | 
3 | GACUGAAUUUUGUUUGGUUACAUGAGGAUCACCCAUGUUGGUCUAAGAACAUGUCUUUUGUACGCUUGUCUUAUAUA [JR_SV3TOV1_Sub069] (puzzle: Sensor v3, turn-off variant 1) | 68.9 | 44.9 | 100 |  |  | 
4 | CGGCGGGCAGGAUAUGGUAAUAAUUACAUGAGGAUCACCCAUGUGGAUAUAUGGGAAUAACCAGAAGGGCUUGUUG [-20.1, -20 kcal, A 30%] (Eterna round: R97, puzzle: Exclusion 5) |  |  |  | 63.2 | 74.4 | 
5 | UGCAGACGAGGAUAUAAAUUUGAUAACAUGAGGAUCACCCAUGUGAUCGAUAGAUCAAAUUUAGAAGGCGUCUGCA [E5/7-A2] (Eterna round: R97, puzzle: Exclusion 5) |  |  |  | 369 | 717 | 
6 | GGGACACAUGAGGAUCACCCAUGUGAGGAUAUGUUAGUUUCGGCCAAAGCCGAAAUUAACAGAAGGCACAUACC [JR_Exclusion1_Sub020] (puzzle: Exclusion 1) |  | 35.7 |  |  |  | 
7 | UAUUAAACAUAGGAUAUCGAAUAUAUCAUUUAACGAGAAGGAUGAACAUGAGGAUCACCCAUGUGGUAUCAUGG [Mat - Exclusion 6 - JL Mod - D13] (puzzle: Exclusion 6) | 196 | 269 | 410 |  |  | 
8 | UAUCAUGUAGGAUAUACGUAGCUAUGACCCUCGAGAACUAUACAUGAGGAUCACCCAUGUAGAAGGGCGACUUU [Eternabot (L1) Solution 34] (Eterna round: R97, puzzle: Exclusion 2) |  |  |  | 21.3 | 17.2 | 
9 | AGUACUAACACGAAAGUGUUAGUACAAUAAGCUAGUGGAACAUGAGGAUCACCCAUGUCCUCAUUAGCUCGUCUUAU [Mat - Sensor v3 - Turn-off var 2 - D33] (puzzle: Sensor v3, turn-off variant 2) | 16.3 | 36.6 | 13.4 |  |  | 
10 | UGUCAGAUGGUAGGAUAUCUAUAUCGAGUGACCCUUUCAUAACAUGAGGAUCACCCAUGUCGGUGGGAGAAGGGCCGUAUGGUG [salish99_ExNG02_R04_029] (Eterna round: R96, puzzle: Exclusion NG 2) |  |  |  | 28.6 | 28.5 | 23.2
11 | CAGUACUGAGGAUAUACAUGAGGAUCACCCAUGUGCUCAAAGUAGGAUACUACUAUUAGUAGAAGGCAGUACUG [Fiskers Ex 3 828 mod 21] (puzzle: Exclusion 3) |  | 23.5 |  |  |  | 
12 | AUAUUAAUAGUAAGGAUAUGCGUAUAUGUAGUUAUGCAGAAGGUACAUGAGGAUCACCCAUGUAUUAAUGUGUA [LRO-BmodExc4-04-Oppy's Opus] (Eterna round: R97, puzzle: Brourd's mod of Exclusion 4) |  |  |  | 16 | 16 | 
13 | ACGGUCAUAGGAUAUACUGGGACAGCGCUAAGGCGCCCUUGACAUGAGGAUCACCCAUGUAGAAGGAUGUCCGA [EX2 C.1] (Eterna round: R97, puzzle: Exclusion 2) |  |  |  | 152 | 22.6 | 
14 | UUUAAGGGAAUUAAGAUCACAUGAGGAUCACCCAUGUAUAUAUAGGAUAUCAGCUCGUGUAGAGCUGAGAAGGAUAUAUACAUA [ExNG3/6-A3] (Eterna round: R96, puzzle: Exclusion NG 3) |  |  |  | 101 | 132 | 32.8
15 | AUAAUGUAAGGAUAUCAGUCGUACAGCUUCGGCUGUACGACUGAGAAGGUACAUGAGGAUCACCCAUGUGAUCA [E4/8-A1] (Eterna round: R97, puzzle: Exclusion 4) |  |  |  | 185 | 1680 | 
16 | GAGUUAGCGUGUGGCACAUACAUGAGGAUCACCCAUGUUAGCUUAUAUAUUGCUCGUCUUAUAACAACACUUAACUG [Mod JX-Electric-eye5] (Eterna round: R97, puzzle: Sensor, turn-off variant 1) |  |  |  | 22.5 | 23.9 | 

Row | Sequence | apparent KD of MS2 coat protein [1] [nM] | apparent KD of MS2 coat protein [2] [nM] | apparent KD of MS2 coat protein [3] [nM] | apparent KD of MS2 coat protein (input ligand: FMN 200 uM) [nM] | apparent KD of MS2 coat protein (input ligand: none) [nM] | apparent KD of MS2 coat protein [4] [nM]
17 | ACCUCACAUGAGGAUCACCCAUGUUAGGAUAUCUCGAUGCUCCGCGGGCGGGAGCAUCAGAGAAGGAACGUGCA [Geusarvees] (puzzle: Exclusion 1) |  | 18.3 |  |  |  | 
18 | GGUACUAACACGAGAGUGUUAGUACUAUAAGCUUGUGUUACAUGAGGAUCACCCAUGUCCUCAUAGGCUCGUCUUAA [Mat - Sensor v3 - Turn-off var 2 - D81] (puzzle: Sensor v3, turn-off variant 2) | 82.4 | 61 | 82.4 |  |  | 
19 | AAUCCUAGAGGAUAUACAUGUGAACUACUGUACAUCCCUGUACAUGAGGAUCACCCAUGUAGAAGGCUGACGGA [Eternabot (L2) Solution 97] (Eterna round: R97, puzzle: Exclusion 2) |  |  |  | 244 | 197 | 
20 | AUAACCGAAGGAUAUAGUCGUGAGGACAUGAGGAUCACCCAUGUGUUUCAGAUAGUCCCACUAGAAGGUCGGCGUC [Eternabot (L2) Solution 29] (Eterna round: R97, puzzle: Exclusion 5) |  |  |  | 110 | 67.2 | 
21 | AAGCGGUGAGGAUAUACAUGAGGAUCACCCAUGUGUAUGCAGAGGGCGCGGUGUUGGUGUAGAAGGCACUGGGA [EX3 B.10] (Eterna round: R97, puzzle: Exclusion 3) |  |  |  | 23 | 19.4 | 
22 | GCCGAUUAAGUGAGGAUAUACCUAUGGAUACAUAGGUAGAAGGCACAUGAGGAUCACCCAUGUUCCUCAUCGGC [Fiskers BMX 4 - 11] (puzzle: Brourd's mod of Exclusion 4) |  | 19.3 |  |  |  | 
23 | AAAACAAAAGGAUAUACAUGAGGAUCACCCAUGUGGCAUAAAAUCGCCGCUAAACCAUGUAGAAGGUUUGCGAA [EX3 A.6] (Eterna round: R97, puzzle: Exclusion 3) |  |  |  | 25.5 | 19.6 | 
24 | AAGCCUCAGGUUAGGAUAUACGCCUGGCCGAAGGAGUAGAAGGGACAUGAGGAUCACCCAUGUGGGUUCAAAAG [Atanvege] (puzzle: Brourd's mod of Exclusion 4) | 52.5 | 43 | 44.9 |  |  | 
25 | UAGAAGGUAGGAUAUACGAAUAAAUAGGGUAGUAAGAAGACACAUGAGGAUCACCCAUGUAGAAGGACCAAGAU [Mat - Exclusion 2 - Mod of my Tesla design - D33] (puzzle: Exclusion 2) | 33.5 | 19.4 | 20.6 |  |  | 
26 | UUUUUAUAUGAAGGAUAUACUUAACAUGAGGAUCACCCAUGUGGUGUUGUGAGUGAGUGAGUUUAGUAGAAGGUCAAUGAUUUU [JMF's solution 10] (Eterna round: R96, puzzle: Exclusion NG 2) |  |  |  | 730 | 345 | 326
27 | CGCCUGGGAGGAUAUCCAAUAUAUGACAUGAGGAUCACCCAUGUUUCCACUCGUACCUCCGGAGAAGGCCCGGCGU [Ex5 #31] (Eterna round: R97, puzzle: Exclusion 5) |  |  |  | 21.7 | 26.7 | 
28 | UUGUUGUAUGUAGGAUAUGCAUAUUAUUAUUAUGCAGAAGGACAUGAGGAUCACCCAUGUAUGUUAUUAUUAUAUGUUAUGUGU [Title] (Eterna round: R96, puzzle: Exclusion NG 1) |  |  |  |  |  | 32
29 | CCCUCAAGCGAGGAUAUAAAUGCGCAUUCGCGGUUAGAAGGCGCUACAUGAGGAUCACCCAUGUAAUUGAAUGG [jl-ex6-4.52 ViennaUCT mod] (Eterna round: R97, puzzle: Exclusion 6) |  |  |  | 117 | 58.7 | 
30 | UUUUUGUGAGGAUAUUAGUAGUAAAAAAAUAAAAUUACUACUGAGAAGGCACAUGAGGAUCACCCAUGUUCCUC [salish99_ex4_r3_040] (puzzle: Exclusion 4) |  | 34.9 |  |  |  | 
31 | GAUCCUUCUGUUAGGAUAUGCUUUGGGCUUCCGCAGCAGAAGGAACAUGAGGAUCACCCAUGUCCAAUGCCAUC [salish99_bmex4_r4_505] (Eterna round: R97, puzzle: Brourd's mod of Exclusion 4) |  |  |  | 46.1 | 39.1 | 
